Laboratory results published in ChEMBL document CHEMBL5649167, “The SUV4-20 inhibitor A-196 verifies a role for epigenetics in genomic integrity” (Nat Chem Biol, 2017).

How the values were obtained:
[1] = system: Clc1cc2c(NC3CCCC3)nnc(-c3ccncc3)c2cc1Cl; settings: Homo sapiens; time 2.0 hrs
[2] = system: Clc1cc2c(NC3CCCC3)nnc(-c3ccncc3)c2cc1Cl; settings: Homo sapiens; time 2.0 hrs; remark: listed apart in the source

Sequence of Histone-lysine N-methyltransferase KMT5B (Homo sapiens), Q4FZB7 (Q4FZB7 whole entry): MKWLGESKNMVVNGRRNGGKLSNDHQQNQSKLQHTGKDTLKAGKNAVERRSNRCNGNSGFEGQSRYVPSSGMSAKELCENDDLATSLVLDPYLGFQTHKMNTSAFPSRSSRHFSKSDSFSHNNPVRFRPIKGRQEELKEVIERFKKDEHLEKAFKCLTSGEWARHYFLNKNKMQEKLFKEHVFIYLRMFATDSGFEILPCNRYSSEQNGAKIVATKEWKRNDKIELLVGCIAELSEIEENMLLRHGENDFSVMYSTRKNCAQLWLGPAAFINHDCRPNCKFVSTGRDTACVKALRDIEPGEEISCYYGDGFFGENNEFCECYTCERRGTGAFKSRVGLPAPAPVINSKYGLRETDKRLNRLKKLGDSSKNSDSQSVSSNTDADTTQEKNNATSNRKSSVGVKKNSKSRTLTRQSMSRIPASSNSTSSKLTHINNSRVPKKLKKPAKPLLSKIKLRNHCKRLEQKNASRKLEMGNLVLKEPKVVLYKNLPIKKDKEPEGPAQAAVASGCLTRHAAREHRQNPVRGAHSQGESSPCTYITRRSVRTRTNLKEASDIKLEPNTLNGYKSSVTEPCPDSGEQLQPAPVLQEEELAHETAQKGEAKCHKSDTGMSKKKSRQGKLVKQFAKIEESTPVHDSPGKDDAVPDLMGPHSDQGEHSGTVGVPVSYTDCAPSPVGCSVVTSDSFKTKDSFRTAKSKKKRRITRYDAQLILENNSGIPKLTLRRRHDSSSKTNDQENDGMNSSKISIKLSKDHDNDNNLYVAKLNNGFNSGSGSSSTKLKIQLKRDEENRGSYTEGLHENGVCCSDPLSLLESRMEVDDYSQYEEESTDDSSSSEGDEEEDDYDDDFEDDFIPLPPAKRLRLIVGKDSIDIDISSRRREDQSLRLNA

## Histone-lysine N-methyltransferase KMT5B (Homo sapiens), Q4FZB7
[1]
  Km: 0.0748 µM
[2]
  Km: 0.0278 µM
